Laboratory results reported in US20190064149.

Molecular target: EphA2 having Myc-labeled C-terminal

B1: MT4-MMP (protein)
chain: QAPAPTKWNKRNLSWRVRTFPRDSPLGHDTVRALMYYALKVWSDIAPLNFHEVAGSAADIQIDFSKADHNDGYPFDGPGGTVAHAFFPGHHHTAGDTHFDDDEAWTFRSSDAHGMDLFAVAVHEFGHAIGLSHVAAAHSIMRPYYQGPVGDPLRYGLPYEDKVRVWQLYGVRESVSPTAQPEEPPLLPEPPDNRSSAPPRKDVPHRCSTHFDAVAQIRGEAFFFKGKYFWRLTRDRHLVSLQPAQMHRFWRGLPLHLDSVDAVYERTSDHKIVFFKGDRYWVFKDNNVEEGYPRPVSDFSLPPGGIDAAFSWAHNDRTYFFKDQLYWRYDDHTRHMDPGYPAQSPLWRGVPSTLDDAMRWSDGASYFFRGQEYWKVLDGELEVAPGYPQSTARDWLVCGDSQADGSVAAGVDAAEGPRAPPGQHDQSRSEDGYEVCSCTS
Q: Which “EphA2 processed fragment, western blotting” value does the source give for B1 here?
A: The value was “a processed fragment of EphA2 (small arrow) was detected only in the MT1-MMP-introduced cells”.

B2: MT6-MMP (protein)
chain: YALSGSVWKKRTLTWRVRSFPQSSQLSQETVRVLMSYALMAWGMESGLTFHEVDSPQGQEPDILIDFARAFHQDSYPFDGLGGTLAHAFFPGEHPISGDTHFDDEETWTFGSKDGEGTDLFAVAVHEFGHALGLGHSSAPNSIMRPFYQGPVGDPDKYRLSQDDRDGLQQLYGKAPQTPYDKPTRKPLAPPPQPPASPTHSPSFPIPDRCEGNFDAIANIRGETFFFKGPWFWRLQPSGQLVSPRPARLHRFWEGLPAQVRVVQAAYARHRDGRILLFSGPQFWVFQDRQLEGGARPLTELGLPPGEEVDAVFSWPQNGKTYLVRGRQYWRYDEAAARPDPGYPRDLSLWEGAPPSPDDVTVSNAGDTYFFKGAHYWRFPKNSIKTEPDAPQPMGPNWLDCPAPSSGPRAPRPPKATPVSETCDCQCELNQA
Q: With B2 as the protein, how does the “EphA2 processed fragment, western blotting” value read?
A: Its value is “a processed fragment of EphA2 (small arrow) was detected only in the MT1-MMP-introduced cells”.
